In patent US20140357838A1, “N-Terminally Modified Insulin Derivatives” (Novo Nordisk A/S, priority 2011, published 2014):
Starred links: 1 amine or outer side, 2 acyl side, 3 side chain; linkers in the order of their positions; H or OH if unused. Positions of bridges follow the written chain, without caps; N, C: chain ends. Groups on a side chain read outwards from the residue. Chains are numbered I, II in the order given. No end group written: not given here. *: point of attachment. Phe(Nα-CONH2) = NC(=O)N[C@@H](Cc1ccccc1)C(=O)*; C20 diacid = O=C(O)CCCCCCCCCCCCCCCCCCC(=O)*; C18 diacid = O=C(O)CCCCCCCCCCCCCCCCC(=O)*; NMe2Phe = CN(C)[C@@H](Cc1ccccc1)C(=O)*; γGlu = O=C(O)[C@H](CCC(=O)[*:2])N[*:1]; Hydantoyl = NC(=O)NCC(=O)*; AEEA = NCCOCCOCC(=O)O; Me2Gly = CN(C)CC(=O)*

What was measured:
human insulin receptor [1] = target: T1, human insulin receptor (Homo sapiens, UniProt P06213); test: Insulin receptor affinity, SPA antibody capture assay (0% HSA); format: binding; conditions: relative to the affinity of human insulin
T1 sequence (P06213 28-746 isoform P06213-2 limits assumed): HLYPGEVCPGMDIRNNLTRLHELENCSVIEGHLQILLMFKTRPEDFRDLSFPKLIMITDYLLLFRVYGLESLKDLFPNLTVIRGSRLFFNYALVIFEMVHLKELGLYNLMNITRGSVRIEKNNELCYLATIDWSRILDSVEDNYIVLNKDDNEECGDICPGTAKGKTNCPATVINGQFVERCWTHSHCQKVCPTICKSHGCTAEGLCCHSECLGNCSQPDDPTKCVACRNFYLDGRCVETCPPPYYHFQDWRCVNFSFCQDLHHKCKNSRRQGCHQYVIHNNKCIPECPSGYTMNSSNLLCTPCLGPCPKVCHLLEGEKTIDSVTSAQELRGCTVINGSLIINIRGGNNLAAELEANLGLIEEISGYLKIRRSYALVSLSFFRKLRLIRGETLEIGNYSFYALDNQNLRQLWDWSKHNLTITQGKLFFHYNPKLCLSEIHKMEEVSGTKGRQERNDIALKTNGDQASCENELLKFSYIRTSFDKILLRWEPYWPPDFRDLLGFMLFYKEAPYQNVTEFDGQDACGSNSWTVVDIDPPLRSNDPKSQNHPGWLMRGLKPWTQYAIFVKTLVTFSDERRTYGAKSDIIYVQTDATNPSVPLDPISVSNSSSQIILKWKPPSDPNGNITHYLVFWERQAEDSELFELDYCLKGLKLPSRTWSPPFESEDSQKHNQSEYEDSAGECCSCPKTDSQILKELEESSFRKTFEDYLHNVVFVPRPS
T1 sequence (P06213 763-1382 partner limits assumed): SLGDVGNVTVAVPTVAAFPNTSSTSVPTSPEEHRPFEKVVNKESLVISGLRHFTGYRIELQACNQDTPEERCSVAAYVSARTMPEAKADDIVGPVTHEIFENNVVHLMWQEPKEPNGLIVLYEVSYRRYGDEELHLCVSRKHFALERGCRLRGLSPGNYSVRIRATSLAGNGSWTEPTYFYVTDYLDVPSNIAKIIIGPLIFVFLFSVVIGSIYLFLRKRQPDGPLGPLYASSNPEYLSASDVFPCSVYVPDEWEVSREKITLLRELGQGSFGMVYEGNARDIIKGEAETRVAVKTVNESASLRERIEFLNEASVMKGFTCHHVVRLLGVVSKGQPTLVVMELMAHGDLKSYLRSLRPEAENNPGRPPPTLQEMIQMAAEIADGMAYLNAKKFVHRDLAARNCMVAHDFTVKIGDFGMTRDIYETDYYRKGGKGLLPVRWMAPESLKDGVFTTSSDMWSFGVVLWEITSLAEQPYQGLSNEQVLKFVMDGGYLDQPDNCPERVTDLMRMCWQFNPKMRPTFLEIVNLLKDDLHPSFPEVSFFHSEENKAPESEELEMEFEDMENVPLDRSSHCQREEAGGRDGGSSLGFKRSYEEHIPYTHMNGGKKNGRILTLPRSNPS
Method: (§1) SPA-PVT antibody-binding beads, anti-mouse reagent (Amersham Bio-sciences, Cat No. PRNQ0017) are mixed with 25 ml of binding buffer (100 mM HEPES pH 7.8; 100 mM sodium chloride, 10 mM MgSO4, 0.025% Tween-20). […] A total of 100 μl reagent mix is then added to each well in the Packard Optiplate and a dilution series of the N-terminally modified insulin is made in the Optiplate from appropriate samples. The samples are then incubated for 16 hours while gently shaken. The phases are the then separated by centrifugation for 1 min and the plates counted in a Topcounter.

duodenum lumen enzymes = test: Degradation of insulin analogs using duodenum lumen enzymes; format: in vitro ADME; conditions: rat duodenum lumen enzymes, 100 mM Hepes pH 7.4, 37° C.; degradation half time divided by that of reference insulin
Method: Degradation of insulin analogs using duodenum lumen enzymes (prepared by filtration of duodenum lumen content) from SPD rats. The assay is performed by a robot in a 96 well plate (2 ml) with 16 wells available for insulin analogs and standards. Insulin analogs ˜15 μM are incubated with duodenum enzymes in 100 mM Hepes, pH=7.4 at 37° C., samples are taken after 1, 15, 30, 60, 120 and 240 min and reaction quenched by addition of TFA. Intact insulin analogs at each point are determined by RP-HPLC. […] The amount of enzymes added for the degradation is such that the half time for degradation of the reference insulin is between 60 min and 180 min.

human insulin receptor [2] = target: T1, human insulin receptor; test: Insulin receptor affinity, SPA assay with […] HSA in binding buffer; conditions: relative to the affinity of human insulin
Method: as §1

[3] = Hydrophobicity by isocratic reverse phase HPLC; format: physicochemical; conditions: k'rel, isocratic RP-HPLC, pH 7.3, human insulin = 1
Method: The hydrophobicity of an N-terminally modified insulin is found by reverse phase HPLC run under isocratic conditions. […] The hydrophobicity, k′rel, is calculated as: k′relderiv=((tderiv−t0)(tref−t0)*k′relref. Using HI as reference: k′relref=k′relHI=1. The void time of the HPLC system, t0, is determined by injecting 5 μl of 0.1 mM NaNO3. Running conditions:
Column: Lichrosorb RP-C18, 5 μm, 4×250 mm
Buffer A: 0.1 M natrium phosphate pH 7.3, 10 vol % CH3CN
After running an initial gradient, the isocratic level for running the derivative and reference (for example HI) is chosen, and the elution times of the derivative and reference under isocratic conditions are used in the above equation to calculate k′relderiv.

[4] = Chemical stability of insulin derivatives in 2 mM phosphate (SEC-HPLC and RP-HPLC); format: physicochemical; conditions: 4 weeks 37° C. minus 5° C. start sample; for HMWP Formation (%) (4 weeks 37° C.- 0 weeks 5° C.): pH 7.5, SEC-HPLC
Method: Chemical stability of an insulin derivative is assessed after incubating insulin derivative in 2 mM phosphate, pH=7.5 at 37° C. for up to 8 weeks. Formation of high molecular weight products (HMWP) is determined by SEC HPLC analysis after 0, 2, 4 and optionally 8 weeks. The results of the SEC method are given as a difference between HMWP formation at 37° C. and 5° C. start sample as a percentage of total absorbance at 215 nm. Chemical degradation products are determined by RP HPLC analysis after 0, 2, 4 and optionally 8 weeks. The results of the RP method are given as a difference between chemical degradation observed at 37° C. and 5° C. start sample as a percentage of total absorbance at 215 nm.
• Solvent: 500 mM NaCl, 10 mM NaH2PO4, 5 mM H3PO4, 50% (v/v) 2-propanol • Flow: 0.5 ml/min • Run time: 30 min • UV Detection: 215 nm • Column: Insulin HMWP column from Waters 7.8×300 mm • Temperature: 50° C.
• Solvent A: 0.09M phosphate buffer pH 3.6 (di-ammoniumhydrogenphosphate), 10% MeCN (v/v) • Solvent B: 80% MeCN (v/v %) • Flow: 0.3 ml/min • Runtime: 33 min • UV Detection: 215 nm • Column: Waters Acquity BEH130 C18 Column 1.7 μm, 150×2.1 mm • Temperature: 50° C. • Gradient: […]

[5] = Thioflavin T (ThT) fibrillation assay; format: physicochemical; conditions: same experiment as prior art derivatives, 37° C., 960 rpm, pH 7.4, mean ± SD
From the text: This has traditionally been measured by visual inspection of the sample. However, that kind of measurement is very subjective and depending on the observer. Therefore the application of a small molecule indicator probe is much preferred. […] The time course for fibril formation can be described by a sigmoidal curve with the following expression (Nielsen at al. Biochemistry 40, 6036-6046, 2001):
Here, F is the ThT fluorescence at the time t. The constant t0 is the time needed to reach 50% of maximum fluorescence. The two important parameters describing fibril formation are the lag-time calculated by t0-2[…] and the apparent rate constant kapp=1/{tilde over (□)}.
Samples were prepared freshly before each assay. Each analog was dissolved in 2 mM sodium phosphate, pH=7.4. Thioflavin T was added to the samples from a stock solution in water to a final concentration of 1 μM. Sample aliquots of 200 μl were placed in a 96 well microtiter plate (Packard Optiplate™-96, white polystyrene). Usually four replica of each sample (corresponding to one test condition) were placed in one column of wells. The plate was sealed with Scotch Pad (Qiagen).
Incubation at given temperature, shaking and measurements of the ThT fluorescence emission were done in either a Fluoroskan Ascent FL or Varioskan fluorescence plate reader (thermo Labsystems). The temperature was adjusted to 37° C. […] Fluorescence measurements were done using excitation through a 444 nm filter and measurement of emission through a 485 nm filter.
Each run was initiated by incubating the plate at the assay temperature for 10 min. The plate was measured every 20 minutes for typically 45 hours. Between each measurement, the plate was shaken and heated as described above.
The measurement data points were saved in Microsoft Excel format for further processing and curve drawing and fitting was performed using Graph Pad Prism. […] The data points are typically a mean of four samples. Only data obtained in the same experiment (i.e. samples on the same plate) are presented in the same graph ensuring a relative measure of fibrillation between the individual samples of one assay rather then comparison between different assays. The data set may be fitted to Eq. (1). However since the full sigmoidal curves are not usually achieved during the measurement time, the degree of fibrillation is expressed as ThT fluorescence at various time points calculated as the mean of the four samples and shown with the standard deviation

Primary rat adipocytes = test: Lipogenesis in rat adipocytes; format: cell-based; conditions: relative potency vs human insulin
From the text: As a measure of in vitro potency of the insulins of the invention, lipogenesis can be used.
The labelled glucose is converted into extractable lipids in a dose dependent way, resulting in full dose response curves.

| Substance | Relative IR-A affinity (@ 0% HSA) (%) (human insulin receptor [1]) | Stability towards duodenum lumen enzymes (fold relative to A14E, B25H, desB30 human insulin) (duodenum lumen enzymes) [fold] | Relative IR-A affinity (@ […] HSA) (%)e (human insulin receptor [2]) [%] | Hydrophobicity rel. to human insulin [3] | Chemical degradation (%) (4 weeks 37° C.- 0 weeks 5° C.) ([4]; pH 7.5, RP-HPLC) | HMWP Formation (%) (4 weeks 37° C.- 0 weeks 5° C.) [4] | ThT 0 h [5] | ThT 5 h [5] | ThT 10 h [5] | ThT 30 h [5] | ThT 40 h [5] | Lipogenesis in rat adipocytres (@ 0.1% HSA) rel. to human insulin (%) (Primary rat adipocytes) |
| --- | --- | --- | --- | --- | --- | --- | --- | --- | --- | --- | --- | --- |
| I: NMe2Phe-VCQHLCGSHLVEALHLVCGERGFHYTPK([AEEA-AEEA-γGlu-C20 diacid]) / II: Me2Gly-IVEQCCTSCCSLEQLENYCN (disulfide I:2-II:9, I:6-II:6, I:18-II:19, II:5-II:10) [Example 28, A1(N^α,N^α-Dimethyl), A10C, A14E, B1(N^α,N^α-dimethyl), B3C, B16H, B25H, B29K(N^εeicosanedioyl-gGlu-2×OEG), desB30 Human Insulin] | 0.1 | 1.6 | 0.01 | 0.298 |  |  |  |  |  |  |  |  |
| I: NMe2Phe-VCQHLCGSHLVEALYLVCGERGFHYPK([AEEA-AEEA-γGlu-C18 diacid]) / II: Me2Gly-IVEQCCTSCCSLEQLENYCN (disulfide I:2-II:9, I:6-II:6, I:18-II:19, II:5-II:10) [Example 11, A1(N^α,N^α-Dimethyl), A10C, A14E, B1(N^α,N^α-dimethyl), B3C, B25H, desB27, B29K(N^εoctadecanedioyl-gGlu-2×OEG), desB30 Human Insulin] | 0.6 |  | 0.04 | 0.095 | 3.2 | −0.2 | 31 ± 0.4 | 23 ± 0.4 | 23 ± 0.6 | 21 ± 0.2 | 21 ± 0.3 |  |
| I: NMe2Phe-VCQHLCGSHLVEALYLVCGERGFHYTPK([AEEA-AEEA-γGlu-C20 diacid]) / II: Me2Gly-IVEQCCTSCCSLEQLENYCN (disulfide I:2-II:9, I:6-II:6, I:18-II:19, II:5-II:10) [Example 2, A1(N^α,N^α-Dimethyl), A10C, A14E, B1(N^α,N^α-dimethyl), B3C, B25H, B29K(N^εeicosanedioyl-gGlu-2×OEG), desB30 Human Insulin] |  |  |  | 0.38 |  | 0.0 | 35 ± 0.9 | 22 ± 0.4 | 22 ± 0.3 | 20 ± 0.3 | 19 ± 0.3 | 0.025 |
| I: {Phe(Nα-CONH2)}-VCQHLCGSHLVEALYLVCGERGFFYPK([AEEA-AEEA-γGlu-C18 diacid]) / II: Hydantoyl-IVEQCCTSCCSLEQLENYCN (disulfide I:2-II:9, I:6-II:6, I:18-II:19, II:5-II:10) [Example 33, A1(N^α-Carbamoyl), A10C, A14E, B1(N^α-carbamoyl), B3C, desB27, B29K(N^εoctadecanedioyl-gGlu-2×OEG), desB30 Human Insulin] | 0.6 | 1.6 |  |  |  |  |  |  |  |  |  |  |
| I: {Phe(Nα-CONH2)}-VCQHLCGSHLVEALYLVCGERGFHYPK([AEEA-AEEA-γGlu-C20 diacid]) / II: Hydantoyl-IVEQCCTSCCSLEQLENYCN (disulfide I:2-II:9, I:6-II:6, I:18-II:19, II:5-II:10) [Example 46, A1(N^α-Carbamoyl), A10C, A14E, B1(N^α-carbamoyl), B3C, B25H, desB27, B29K(N^εeicosanedioyl-gGlu-2×OEG), desB30 Human Insulin] | 0.1 | 1.2 | 0.01 | 0.132 |  |  |  |  |  |  |  |  |
| I: {Phe(Nα-CONH2)}-VCQHLCGSHLVEALYLVCGERGFHYPK([γGlu-C18 diacid]) / II: Hydantoyl-IVEQCCTSCCSLEQLENYCN (disulfide I:2-II:9, I:6-II:6, I:18-II:19, II:5-II:10) [Example 34, A1(N^αCarbamoyl), A10C, A14E, B1(N^αcarbamoyl), B3C, B25H, desB27, B29K(N^εoctadecanedioyl-gGlu), desB30 Human Insulin] | 0.1 | 1.8 | 0.00 |  |  |  | 20 ± 0.1 | 13 ± 0.7 | 13 ± 0.8 | 13 ± 0.4 | 13 ± 0.3 |  |
